Drawing on paper PMC5780489, “Characterization of the multimeric structure of poly(A)-binding protein on a poly(A) tail” (Scientific Reports, 2018), this text covers Kd for one molecule.

In general, Kd refers to the constant that tells how readily two partners part at equilibrium.

The target in this assay is T1, PABPC1 RRM1/2/3/4 (residues 1-370) (human, UniProt P11940 1-370).
T1 construct: human PABPC1, residues 1-370 (RRM1 to RRM4), cloned into pET-42b(+); Used in complex with long poly(A) or A24 RNA; Purification details are in the Supplementary methods; source: E. coli, purified (Glutathione-Sepharose 4B, GST cleaved off, cation exchange, gel filtration)
T1 sequence (P11940 1-370): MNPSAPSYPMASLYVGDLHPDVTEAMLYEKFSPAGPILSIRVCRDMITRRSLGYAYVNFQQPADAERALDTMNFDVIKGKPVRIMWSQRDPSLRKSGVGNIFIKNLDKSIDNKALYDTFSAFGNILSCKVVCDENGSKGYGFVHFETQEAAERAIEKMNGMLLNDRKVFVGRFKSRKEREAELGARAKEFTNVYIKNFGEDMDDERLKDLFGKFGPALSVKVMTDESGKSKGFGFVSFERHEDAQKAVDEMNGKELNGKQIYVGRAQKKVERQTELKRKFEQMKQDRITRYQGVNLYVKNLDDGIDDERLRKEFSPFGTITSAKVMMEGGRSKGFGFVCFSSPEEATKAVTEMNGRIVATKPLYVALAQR
Briefly: NMR titration; 1H-15N HSQC of 15N-labelled Lt2 (100 μM) with RRM1/2/3/4-A24 at 50, 100 and 150 μM; chemical shift changes of W437 side chain, W437 and T438 fitted to a 1:1 model; not saturated; 303 K, 26 mM NaH2PO4 pH 6.0, 100 mM NaCl. The following applies: both partners purified.

B1: PABPC1 linker fragment Lt2 (residues 421-470) (peptide, UniProt P11940 421-470, looked up)
chain: AYYPPSQIAQLRPSPRWTAQGARPHPFQNMPGAIRPAAPRPPFSTMRPAS
notes: human PABPC1, residues 421-470, cloned into pGEX-6p-1; Uniformly 15N-labelled for NMR
With B1, the Kd lay within 10 to 54 µM.
